Measurements: US20240287184A1 (GUANGDONG FAPON BIOPHARMA, published 2024)
Residue numbers refer to the chain shown, from its start. Blank lines part the entries; values can stand above or below the binder they belong to.

Assays:
human ICOS-hFc [1] = target: T1, human ICOS-hFc (human, UniProt Q9Y6W8 21-140); assay: ELISA, antigen coated at 1 µg/mL
T1 construct: Commercial protein; also called ICOS (ACRO); not shown: human Fc (hFc)
T1 sequence (looked up): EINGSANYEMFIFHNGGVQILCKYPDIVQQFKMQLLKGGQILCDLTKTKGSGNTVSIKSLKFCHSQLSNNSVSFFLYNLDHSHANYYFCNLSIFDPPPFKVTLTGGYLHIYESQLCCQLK
Text: (§1) A horse radish peroxidase (HRP)-coupled anti-human IgG (F) was used as the secondary antibody. After developed with TMB and terminated, it was read for an OD450 value with a microplate reader.

human CTLA4-hFc [2] = target: T2, human CTLA4-hFc (human, UniProt P16410 37-162, limits assumed); assay: ELISA, antigen coated at 1 µg/mL
T2 construct: Commercial protein; also called CTLA-4 (ACRO); not shown: human Fc (hFc)
T2 sequence (P16410 37-162 limits assumed): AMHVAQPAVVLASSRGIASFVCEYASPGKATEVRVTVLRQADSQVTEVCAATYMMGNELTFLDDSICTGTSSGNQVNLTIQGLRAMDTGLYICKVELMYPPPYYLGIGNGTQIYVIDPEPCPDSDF
Text: as §1

human CD28-hFc [3] = target: T3, human CD28-hFc (human, UniProt P10747 19-152); assay: ELISA, antigen coated at 1 µg/mL
T3 construct: Commercial protein; also called CD28 (ACRO); not shown: human Fc (hFc)
Text: as §1

[4] = target: T4, recombinant human PD-1 expressed on the surface of CHO cells (CHO-hPD1) (human, UniProt Q15116 25-288); assay: flow cytometry, blocking of PD-L1-mFc (0.2 µg/mL) binding to CHO-hPD1
T4 construct: whole, on cells; also called CHO-PD1; hPD1-transfected CHO cells
T4 sequence (Q15116 25-288): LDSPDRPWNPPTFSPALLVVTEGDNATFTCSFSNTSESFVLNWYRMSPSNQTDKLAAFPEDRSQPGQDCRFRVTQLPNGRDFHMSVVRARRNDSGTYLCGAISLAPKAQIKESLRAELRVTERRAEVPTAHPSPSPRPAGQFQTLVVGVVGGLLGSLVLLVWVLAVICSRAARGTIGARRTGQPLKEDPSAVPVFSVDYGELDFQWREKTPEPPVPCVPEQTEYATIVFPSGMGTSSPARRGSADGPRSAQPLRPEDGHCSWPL
Method: (§2) The ability of the anti-PD-1 humanized antibody to block the binding of the ligand to a transfected CHO cells which could stably express PD-1 on the surface was analyzed by a flow cytometer.
(§3) The CHO-PD1 cells were resuspended with a buffer (PBS containing 3% BSA), and adjusted to the density of 2×10⁶ cells/mL. The cell suspension was added into a 96-well U-shaped plate at 100 μL/well and centrifuged at 300 g for 5 minutes, and then the supernatant was discarded.
(§4) The cells were centrifuged at 300 g for 5 minutes, washed once with the buffer, added with a PE-labeled goat anti-mouse IgG fluorescent antibody (Biolegend), and incubated at 4° C. for 30 minutes. The cells were centrifuged and washed once, then resuspended in PBS, and subsequently analyzed by a CytoFlex flow cytometer to detect the quantity of the ligand protein bound to the cells, and calculate the IC₅₀ value of the PD-1 antibody in blocking the binding.

[5] = target: T4, recombinant human PD-1 expressed on the …; assay: flow cytometry on CHO-hPD1 cells
Method: (§5) A CHO (Chinese Hamster Ovary Cells) cell line, CHO-hPD1, capable of expressing a recombinant human PD-1 on the cell surface, and a CHO cell line, CHO-cynoPD1, capable of expressing a monkey PD1 on the cell surface were prepared by recombinant technology. […] The specific method was: In order to evaluate the binding of the humanized antibody to the CHO-hPD1, 2×10⁵ CHO-hPD1 cells and the humanized antibody diluted in concentration gradient (with an initial concentration of 30 μg/mL, and diluted in 3-fold gradient) were added into a 96-well plate, and incubated at 4° C. for 30 minutes. The cells were washed once with a buffer (PBS containing 3% BSA) and then added with a PE-labeled anti-human IgG (Fc) Ab (Biolegend) fluorescent secondary antibody, incubated at 4° C. for 30 minutes, then washed once with the buffer and subsequently resuspended in PBS. Thereafter, the cell suspension was subjected to flow cytometric analysis by CytoFlex (Beckman flow cytometer), and the quantity of the antibody bound to the cells was measured according to the mean fluorescence intensity (MFI) of the staining. The same method was used for evaluating the binding of the humanized antibody to the CHO-cyno cells.

[6] = target: T5, PD1 naturally expressed by activated human lymphocytes (PHA-activated PBMC) (human, UniProt Q15116 25-288); assay: flow cytometry on PHA-activated human PBMC
T5 construct: whole, on cells; Also used as the target for the mixed lymphocyte reaction (human T cells)
T5 sequence (Q15116 25-288): as above
Method: After being obtained from fresh human peripheral blood by gradient centrifugation of lymphatic separation medium, the PBMCs were adjusted to the density of 1×10⁶ cells/mL and inoculated into T75, and meanwhile added with PHA-L (Sigma) at a final concentration of 1 μg/mL to stimulate the proliferation of lymphocytes. After being allowed to stand in an incubator at 37° C. and 5% CO₂ for 3 days, the cell suspension was taken out and centrifuged. The supernatant was discarded, and the precipitate was resuspended in a buffer (PBS containing 3% BSA) and added into a 96-well U-shaped plate at 2E5/well, then added with different concentration gradients of the humanized antibody, incubated at 4° C. for 30 minutes, and then centrifuged at 300 g for 5 minutes. The cells were washed once with the buffer, and added with a PE-labeled goat anti-human IgG fluorescent antibody (Biolegend), and incubated at 4° C. for 30 minutes. Then cells were centrifuged and washed once, resuspended in PBS, and subsequently analyzed by a CytoFlex flow cytometer to detect the quantity of the antibody bound to the PBMC.

[7] = target: T5, PD1 naturally expressed by activated …; assay: cell-based or functional assay
[8] = target: T4, recombinant human PD-1 expressed on the …; assay: flow cytometry, blocking of PD-L2-mFc (0.2 µg/mL) binding to CHO-hPD1
Method: as §2, §3, §4

human ICOS-hFc [9] = target: T1, human ICOS-hFc; assay: ELISA, antigen coated at 1 µg/mL, antibody 10 µg/mL
Text: as §1

human CTLA4-hFc [10] = target: T2, human CTLA4-hFc; assay: as above
Text: as §1

human PD-1-hFc = target: T6, human PD-1-hFc (human, UniProt Q15116 25-167); assay: as above
T6 construct: Commercial protein; also called PD-1 (ACRO); not shown: human Fc (hFc)
T6 sequence (Q15116 25-167 limits assumed): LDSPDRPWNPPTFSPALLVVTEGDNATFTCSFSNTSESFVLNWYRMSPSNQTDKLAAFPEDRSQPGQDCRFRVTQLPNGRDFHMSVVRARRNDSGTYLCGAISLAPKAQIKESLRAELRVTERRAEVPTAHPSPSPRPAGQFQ
Text: as §1

human CD28-hFc [11] = target: T3, human CD28-hFc; assay: as above
Text: as §1

[12] = target: T7, monkey PD1 expressed on the surface of CHO cells (CHO-cynoPD1) (monkey); assay: flow cytometry on CHO-cynoPD1 cells
T7 construct: whole, on cells
Method: as §5

[13] = target: T8, PD-1-his (ACRO) recombinant protein (UniProt Q15116 25-167); assay: BLI (ForteBio Octet), PD-1-his loaded on sensor, antibody in solution
T8 construct: Commercial protein; not shown: his tag
T8 sequence (Q15116 25-167 limits assumed): as above
Method: Finally, analysis was conducted by utilizing a kinetic model, and data processing was conducted.

binding result (human ICOS-hFc [1]): no binding (tested: 10 µg/mL) | binding result (human CTLA4-hFc [2]): no binding (tested: 10 µg/mL) | binding result (human CD28-hFc [3]): no binding (tested: 10 µg/mL) | IC50 [4]: 3.14 nM | EC50 [5]: 1.58 nM | EC50 [6]: 0.281 nM | IFNγ EC50 (mixed lymphocyte reaction) [7]: 2.73 nM | IL2 EC50 (mixed lymphocyte reaction) [7]: 2.79 nM | IC50 [8]: 7.95 nM | OD450 (human ICOS-hFc [9]): 0.131 OD450 | OD450 (human CTLA4-hFc [10]): 0.255 OD450 | OD450 (human PD-1-hFc): 1.23 OD450 | OD450 (human CD28-hFc [11]): 0.189 OD450 | EC50 [12]: 0.894 nM | Kd [13]: < 0.001 nM | koff [13]: < 1e-07 s⁻¹ | kon [13]: 984000 M⁻¹ s⁻¹
B1: anti-PD-1 humanized antibody c43 (antibody, V domains shown)
VH: QVQLVQSGAEVKKPGASVKVSCKASGYTFTTYYMYWVRQAPGQGLEWIGGINPSNGGTNYAEKFKGRVTLTVDTSTSTAYMELSSLRSEDTAVYYCTRRDSNYDGGFDYWGQGTTVTVSS
VL: DIQMTQSPSSLSASVGDRVTITCRASKSVSTSGYSYMHWYQQKPGKAPKLLIYLAYHLESGVPSRFSGSGSGTDFTLTISSLQPEDFATYYCQHSWELPITFGQGTKLEIKR

binding result (human ICOS-hFc [1]): no binding (tested: 10 µg/mL) | binding result (human CTLA4-hFc [2]): no binding (tested: 10 µg/mL) | binding result (human CD28-hFc [3]): no binding (tested: 10 µg/mL) | IC50 [4]: 3.02 nM | EC50 [5]: 1.71 nM | EC50 [6]: 0.213 nM | IFNγ EC50 (mixed lymphocyte reaction) [7]: 6.65 nM | IL2 EC50 (mixed lymphocyte reaction) [7]: 1.88 nM | IC50 [8]: 7.05 nM | OD450 (human ICOS-hFc [9]): 0.133 OD450 | OD450 (human CTLA4-hFc [10]): 0.239 OD450 | OD450 (human PD-1-hFc): 1.48 OD450 | OD450 (human CD28-hFc [11]): 0.176 OD450 | EC50 [12]: 0.743 nM | Kd [13]: < 0.001 nM | koff [13]: < 1e-07 s⁻¹ | kon [13]: 979000 M⁻¹ s⁻¹
B2: anti-PD-1 humanized antibody c53 (antibody, V domains shown)
VH: B1 VH with I48M, E62Q, K65Q, V68A, L70M
VL: B1 VL

binding result (human ICOS-hFc [1]): no binding (tested: 10 µg/mL) | binding result (human CTLA4-hFc [2]): no binding (tested: 10 µg/mL) | binding result (human CD28-hFc [3]): no binding (tested: 10 µg/mL) | IC50 [4]: 3.1 nM | EC50 [5]: 1.68 nM | EC50 [6]: 0.141 nM | IFNγ EC50 (mixed lymphocyte reaction) [7]: 0.727 nM | IL2 EC50 (mixed lymphocyte reaction) [7]: 13.3 nM | IC50 [8]: 6.88 nM | OD450 (human ICOS-hFc [9]): 0.117 OD450 | OD450 (human CTLA4-hFc [10]): 0.209 OD450 | OD450 (human PD-1-hFc): 1.33 OD450 | OD450 (human CD28-hFc [11]): 0.18 OD450 | EC50 [12]: 0.63 nM | Kd [13]: < 0.001 nM | koff [13]: < 1e-07 s⁻¹ | kon [13]: 985000 M⁻¹ s⁻¹
B3: anti-PD-1 humanized antibody c22 (antibody, V domains shown)
VH: B1 VH with I48M, Y60F, A61N, G66S, L70M, T74K
VL: B1 VL with M4L, V19A, L82V
